Results on 2 molecules are retold here after patent publication US12201699, “Compositions and methods for promoting homology directed repair” (Editas Medicine, Inc.).

The target in the data set is Tet Repressor (TetR) (UniProt P04483 P04483:1-207). Description: EMSA; lacks Tet operator; 500 nM TetR, 50 nM DNA, 300 mM NaCl, pH 7.7. To be noted: chain copies: 2 (inferred). The source says: The nucleotide sequence to which the Tet Repressor protein binds, typically consists of several repeats (5 or more) of the Tet Operator (TetO)19 base pair sequence, each followed by a 17 bp spacer. Here, we evaluated the binding of the Tet repressor protein to several Tet Operator sequence-containing variants that included spacer sequences of differing sizes, or no spacer sequences. Specifically, we investigated […] To test the binding capacity of the Tet Operator sequence-containing variants experimentally, 500 nM of recombinant TetR protein (Imgen BioSciences, Inc.; Cat. No. P-1002-0.5 mg) was incubated with 50 nM of template DNA in binding buffer (50 mM HEPES, 20% glycerol, 300 mM NaCl, pH 7.7) and protein binding to the Tet Operator sequence-containing variants was analyzed using an electrophoretic mobility shift assay using a 10% polyacrylamide gel (FIG. 8B).
Background: A gel shift assay detects complexes by their altered migration in electrophoresis.

Tet Repressor (TetR), sequence (P04483 whole entry, one chain of several): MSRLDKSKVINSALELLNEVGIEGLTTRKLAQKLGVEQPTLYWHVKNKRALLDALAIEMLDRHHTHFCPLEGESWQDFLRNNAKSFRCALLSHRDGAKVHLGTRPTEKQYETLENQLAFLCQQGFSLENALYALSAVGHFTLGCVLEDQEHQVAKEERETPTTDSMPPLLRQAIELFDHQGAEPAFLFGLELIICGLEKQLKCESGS

B1: ssODN-179 (control) (ssDNA)
DNA: TGCTTCTGACACAACTGTGTTCACTAGCAACCTCAAACAGACACCATGGTGCATCTGACTCGTGTGGAGAAGTCGGCCGTTACTGCCCTGCAGGGCAAGCTTAACGTGGATGAAGTTCGTGGTGAGGCCCTGGGCAGGTTGGTATCAAGGTTACAAGACAGGTTTAAGGAGACCAATAG
Take B1: the binding result is “no binding”.

B2: ssODN-109 (control) (ssDNA)
DNA: AACAGACACCATGGTGCATCTGACTCGTGTGGAGAAGTCGGCCGTTACTGCCCTGCAGGGCAAGCTTAACGTGGATGAAGTTCGTGGTGAGGCCCTGGGCAGGTTGGTA
For B2, the binding result is listed as “no binding”.
